Test results from patent US20220339194A1 (A2 BIOTHERAPEUTICS, published 2022).

Target: erb-b2 receptor tyrosine kinase 2 (HER2) on target cells (Homo sapiens (Human), UniProt P04626 23-1255)
Assay: cell-based or functional assay

B1: HER2 CAR CT1094 (receptor)
chain: QVQLQQSGPELKKPGETVKISCKASGYPFTNYGMNWVKQAPGQGLKWMGWINTSTGESTFADDFKGRFDFSLETSANTAYLQINNLKSEDSATYFCARWEVYHGYVPYWGQGTTVTVSSGGGGSGGGGSGGGGSDIQLTQSHKFLSTSVGDRVSITCKASQDVYNAVAWYQQKPGQSPKLLIYSASSRYTGVPSRFTGSGSGPDFTFTISSVQAEDLAVYFCQQHFRTPFTFGSGTKLEIKAEPKSPDKTHTCPPCPKDPKFWVLVVVGGVLACYSLLVTVAFIIFWVRSKRSRLLHSDYMNMTPRRPGPTRKHYQPYAPPRDFAAYRSRVKFSRSADAPAYKQGQNQLYNELNLGRREEYDVLDKRRGRDPEMGGKPRRKNPQEGLYNELQKDKMAEAYSEIGMKGERRRGKGHDGLYQGLSTATKDTYDALHMQALPPR
Q: Which results are given for B1?
A: EC50 (molecules/cell), Jurkat NFAT luciferase activation, mRNA titration in HeLa; construct CT1094 (CAR only): 6500 molecules/cell; EC50 (molecules/cell), Jurkat NFAT luciferase activation, mRNA titration in HeLa; construct CT1113 (CT1094 + Murine blocker): 4900 molecules/cell; EC50 (molecules/cell), Jurkat NFAT luciferase activation, mRNA titration in HeLa; construct CT1121 (CT1094 + Human-1 blocker): 4600 molecules/cell; EC50 (molecules/cell), Jurkat NFAT luciferase activation, mRNA titration in HeLa; construct CT1187 (CT1094 + Human-2 blocker): 4500 molecules/cell
